Results on 34 substances are retold here after publication PMC12476836.

Q8WUK0, sequence (Q8WUK0 whole entry, looked up): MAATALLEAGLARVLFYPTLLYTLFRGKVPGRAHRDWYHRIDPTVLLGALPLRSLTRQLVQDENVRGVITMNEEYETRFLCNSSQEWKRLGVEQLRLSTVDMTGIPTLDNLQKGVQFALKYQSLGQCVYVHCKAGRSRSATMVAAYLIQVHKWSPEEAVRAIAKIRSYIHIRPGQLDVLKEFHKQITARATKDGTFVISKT
Q15054, sequence (Q15054 whole entry, looked up): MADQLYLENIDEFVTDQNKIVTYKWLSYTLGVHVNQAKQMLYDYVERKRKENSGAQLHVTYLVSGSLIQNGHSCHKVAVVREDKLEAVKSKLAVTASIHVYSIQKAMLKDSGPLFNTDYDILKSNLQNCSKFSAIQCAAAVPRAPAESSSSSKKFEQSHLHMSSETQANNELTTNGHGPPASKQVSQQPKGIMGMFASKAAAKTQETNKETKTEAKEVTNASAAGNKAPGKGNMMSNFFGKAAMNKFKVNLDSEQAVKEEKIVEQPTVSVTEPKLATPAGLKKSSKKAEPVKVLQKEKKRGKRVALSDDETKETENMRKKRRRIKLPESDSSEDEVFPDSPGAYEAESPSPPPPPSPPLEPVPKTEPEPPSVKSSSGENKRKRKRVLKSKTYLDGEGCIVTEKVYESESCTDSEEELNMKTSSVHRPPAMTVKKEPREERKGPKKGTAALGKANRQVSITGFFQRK
P61081, sequence (P61081 whole entry, looked up): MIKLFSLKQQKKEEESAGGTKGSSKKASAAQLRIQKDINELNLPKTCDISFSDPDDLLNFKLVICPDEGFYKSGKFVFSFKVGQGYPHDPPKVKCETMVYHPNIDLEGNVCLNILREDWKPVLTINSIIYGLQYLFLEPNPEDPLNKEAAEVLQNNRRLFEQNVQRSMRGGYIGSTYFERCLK
P46108, sequence (P46108 whole entry, looked up): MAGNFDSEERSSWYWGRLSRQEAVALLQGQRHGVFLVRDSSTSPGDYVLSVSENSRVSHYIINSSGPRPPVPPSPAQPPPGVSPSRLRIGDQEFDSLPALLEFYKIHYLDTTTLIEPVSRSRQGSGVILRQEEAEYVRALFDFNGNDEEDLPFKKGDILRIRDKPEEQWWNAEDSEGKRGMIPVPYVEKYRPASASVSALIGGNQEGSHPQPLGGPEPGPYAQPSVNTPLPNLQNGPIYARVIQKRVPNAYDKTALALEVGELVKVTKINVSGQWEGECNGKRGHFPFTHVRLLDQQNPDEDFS
Q8TEB9, sequence (Q8TEB9 whole entry, looked up): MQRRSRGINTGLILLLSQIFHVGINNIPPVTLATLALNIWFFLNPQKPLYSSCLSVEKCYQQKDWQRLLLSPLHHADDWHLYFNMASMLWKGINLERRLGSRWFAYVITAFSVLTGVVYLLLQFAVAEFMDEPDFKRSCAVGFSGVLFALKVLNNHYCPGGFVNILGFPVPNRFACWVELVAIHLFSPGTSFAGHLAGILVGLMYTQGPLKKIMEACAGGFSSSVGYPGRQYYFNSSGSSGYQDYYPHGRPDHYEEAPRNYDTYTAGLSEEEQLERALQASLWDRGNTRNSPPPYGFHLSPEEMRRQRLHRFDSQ
Q9H0W5, sequence (Q9H0W5 whole entry, looked up): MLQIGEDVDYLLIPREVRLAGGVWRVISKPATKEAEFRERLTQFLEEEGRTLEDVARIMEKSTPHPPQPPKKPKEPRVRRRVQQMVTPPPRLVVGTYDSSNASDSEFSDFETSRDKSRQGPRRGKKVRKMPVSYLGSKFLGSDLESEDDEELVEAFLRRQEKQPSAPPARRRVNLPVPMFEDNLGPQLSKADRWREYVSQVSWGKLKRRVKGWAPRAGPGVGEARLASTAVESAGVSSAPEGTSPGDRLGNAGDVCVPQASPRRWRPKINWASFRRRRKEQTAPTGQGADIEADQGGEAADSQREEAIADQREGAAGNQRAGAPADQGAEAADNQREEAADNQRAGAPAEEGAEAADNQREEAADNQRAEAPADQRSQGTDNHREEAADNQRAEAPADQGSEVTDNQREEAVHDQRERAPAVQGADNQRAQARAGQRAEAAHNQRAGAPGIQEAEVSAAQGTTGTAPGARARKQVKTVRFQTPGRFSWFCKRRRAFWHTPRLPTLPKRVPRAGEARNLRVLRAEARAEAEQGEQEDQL
Q9UQ84, sequence (Q9UQ84 whole entry, looked up): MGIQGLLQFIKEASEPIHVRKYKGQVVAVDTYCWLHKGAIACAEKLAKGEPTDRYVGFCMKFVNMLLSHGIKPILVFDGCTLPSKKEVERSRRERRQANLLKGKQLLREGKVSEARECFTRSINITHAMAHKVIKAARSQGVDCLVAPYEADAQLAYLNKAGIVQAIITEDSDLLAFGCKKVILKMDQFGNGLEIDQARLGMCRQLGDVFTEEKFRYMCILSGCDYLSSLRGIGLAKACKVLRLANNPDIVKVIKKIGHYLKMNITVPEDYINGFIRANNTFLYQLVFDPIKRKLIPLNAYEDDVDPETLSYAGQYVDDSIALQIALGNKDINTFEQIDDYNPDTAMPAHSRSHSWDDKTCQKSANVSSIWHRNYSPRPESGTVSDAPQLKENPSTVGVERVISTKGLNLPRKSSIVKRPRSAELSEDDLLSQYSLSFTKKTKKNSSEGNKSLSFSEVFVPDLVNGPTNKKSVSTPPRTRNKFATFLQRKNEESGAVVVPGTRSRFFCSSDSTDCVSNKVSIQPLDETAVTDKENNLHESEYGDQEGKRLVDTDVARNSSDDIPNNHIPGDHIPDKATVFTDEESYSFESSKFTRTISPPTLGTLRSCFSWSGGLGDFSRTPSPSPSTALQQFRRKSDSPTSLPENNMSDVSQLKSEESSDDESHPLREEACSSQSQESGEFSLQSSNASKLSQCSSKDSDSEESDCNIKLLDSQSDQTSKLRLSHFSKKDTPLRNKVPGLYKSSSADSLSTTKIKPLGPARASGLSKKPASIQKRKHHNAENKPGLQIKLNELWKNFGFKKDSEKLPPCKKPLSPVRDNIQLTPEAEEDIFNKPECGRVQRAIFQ
P10451, sequence (P10451 whole entry, looked up): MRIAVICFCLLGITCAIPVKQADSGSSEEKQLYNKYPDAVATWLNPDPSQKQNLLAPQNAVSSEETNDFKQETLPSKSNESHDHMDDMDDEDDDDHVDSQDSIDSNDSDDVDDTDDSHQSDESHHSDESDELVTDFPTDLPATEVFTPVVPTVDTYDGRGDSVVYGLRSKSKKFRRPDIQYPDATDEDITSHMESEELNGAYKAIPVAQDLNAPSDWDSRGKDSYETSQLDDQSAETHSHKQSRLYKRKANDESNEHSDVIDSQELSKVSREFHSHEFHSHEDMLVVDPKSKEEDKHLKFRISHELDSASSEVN
P30279, sequence (P30279 whole entry, looked up): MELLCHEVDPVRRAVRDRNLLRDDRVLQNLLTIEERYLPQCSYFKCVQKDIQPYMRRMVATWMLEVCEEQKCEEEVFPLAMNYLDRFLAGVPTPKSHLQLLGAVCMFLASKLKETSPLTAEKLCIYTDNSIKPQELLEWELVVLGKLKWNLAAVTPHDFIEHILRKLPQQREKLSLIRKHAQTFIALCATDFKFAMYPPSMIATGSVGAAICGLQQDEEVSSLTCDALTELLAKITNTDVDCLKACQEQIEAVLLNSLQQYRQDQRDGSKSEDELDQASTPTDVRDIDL
P01137, sequence (P01137 whole entry, looked up): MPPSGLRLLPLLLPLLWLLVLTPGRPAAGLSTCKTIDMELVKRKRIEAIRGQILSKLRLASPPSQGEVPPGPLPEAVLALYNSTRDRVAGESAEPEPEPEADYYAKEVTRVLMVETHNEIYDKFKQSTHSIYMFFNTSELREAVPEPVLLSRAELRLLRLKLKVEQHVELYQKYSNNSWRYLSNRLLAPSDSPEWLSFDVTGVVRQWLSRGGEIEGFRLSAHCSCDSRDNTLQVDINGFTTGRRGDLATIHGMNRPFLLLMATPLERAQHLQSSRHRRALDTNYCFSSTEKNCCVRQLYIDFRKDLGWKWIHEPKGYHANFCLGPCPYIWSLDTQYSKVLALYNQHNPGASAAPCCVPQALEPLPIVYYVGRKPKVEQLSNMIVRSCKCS
P06400, sequence (P06400 whole entry, looked up): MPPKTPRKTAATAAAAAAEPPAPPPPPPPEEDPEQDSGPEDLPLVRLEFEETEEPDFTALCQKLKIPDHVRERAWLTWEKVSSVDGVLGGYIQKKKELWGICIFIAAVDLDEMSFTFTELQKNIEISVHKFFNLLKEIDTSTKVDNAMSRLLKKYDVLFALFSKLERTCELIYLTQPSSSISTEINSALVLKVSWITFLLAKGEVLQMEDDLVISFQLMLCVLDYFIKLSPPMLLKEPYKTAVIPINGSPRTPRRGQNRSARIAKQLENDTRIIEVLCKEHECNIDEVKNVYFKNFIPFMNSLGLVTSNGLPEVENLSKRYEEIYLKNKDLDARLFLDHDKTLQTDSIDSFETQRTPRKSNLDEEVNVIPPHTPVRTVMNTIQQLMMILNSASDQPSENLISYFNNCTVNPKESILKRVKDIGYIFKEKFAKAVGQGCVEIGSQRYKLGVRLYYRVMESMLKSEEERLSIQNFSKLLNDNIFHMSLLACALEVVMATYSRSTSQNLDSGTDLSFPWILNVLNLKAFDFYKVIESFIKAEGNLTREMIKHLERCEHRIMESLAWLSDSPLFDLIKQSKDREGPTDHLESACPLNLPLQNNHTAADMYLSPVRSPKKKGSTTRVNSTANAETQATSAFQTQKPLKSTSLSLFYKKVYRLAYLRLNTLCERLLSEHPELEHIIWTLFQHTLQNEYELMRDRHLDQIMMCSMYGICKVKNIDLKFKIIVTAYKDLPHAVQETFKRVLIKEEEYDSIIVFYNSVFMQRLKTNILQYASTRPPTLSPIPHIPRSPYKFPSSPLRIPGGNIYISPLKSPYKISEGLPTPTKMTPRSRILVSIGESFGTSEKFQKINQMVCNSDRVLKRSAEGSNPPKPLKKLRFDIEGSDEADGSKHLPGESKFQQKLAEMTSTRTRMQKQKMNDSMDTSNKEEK

The target of the first test is unnamed. The experiment in a line: affinities annotated in the ELM database (various methods, AffinityMin). The settings on record: cited from earlier work.
Consider O75367 (from UniProt O75367), for which the Kd (as a rule, the equilibrium constant for the complex coming apart) was 63600 nM.
For the substance O95630 (from UniProt O95630), the Kd was 473 nM.
With P01042 (from UniProt P01042), the Kd is 110000 nM.
For P01137 (from UniProt P01137), the Kd is 7.2 nM.
Regarding P06400 (from UniProt P06400), the Kd is 3900 nM.
Consider P10451 (from UniProt P10451), for which the Kd is 0.43 nM.
Take P14784 (from UniProt P14784): the Kd is 750 nM.
As to P17535 (from UniProt P17535), the Kd is 73000 nM.
On to P30279 (from UniProt P30279), for which the Kd was 2500 nM.
For the substance P46108 (from UniProt P46108), the Kd is 10200 nM.
As for P49137 (from UniProt P49137), the Kd was 50 nM.
As to P61081 (from UniProt P61081), the dissociation constant (Kd) is 1800 nM.
With Q6NS38 (from UniProt Q6NS38), the Kd was 240 nM.
On to Q8NHG7 (from UniProt Q8NHG7), for which the dissociation constant (Kd) was 5880 nM.
As for Q8TEB9 (from UniProt Q8TEB9), the Kd is 66500 nM.
For Q8WUK0 (from UniProt Q8WUK0), the Kd was 530 nM.
As for Q9H0W5 (from UniProt Q9H0W5), the Kd was 180 nM.
Q9H9L4 (from UniProt Q9H9L4): the Kd is 8600 nM.
Regarding Q9NZM5 (from UniProt Q9NZM5), the Kd is 23300 nM.
As for Q9UNA4 (from UniProt Q9UNA4), the Kd is 300 nM.
Take Q9UQ84 (from UniProt Q9UQ84): the Kd was 16500 nM.
As for Q9Y698 (from UniProt Q9Y698), the Kd was 32500 nM.
Regarding Q52LA3 (from UniProt Q52LA3), the dissociation constant Kd was 1400 nM.
In the case of Q86VZ6 (from UniProt Q86VZ6), the Kd is 8900 nM.
On to Q96AE4 (from UniProt Q96AE4), for which the Kd was 6000 nM.
On to Q96ST2 (from UniProt Q96ST2), for which the Kd was 4700 nM.
As to Q01094 (from UniProt Q01094), the Kd was 1060 nM.
For the substance Q13309 (from UniProt Q13309), the Kd is 3200 nM.
In the case of Q15054 (from UniProt Q15054), the dissociation constant Kd is 1700 nM.
For the substance Q92844 (from UniProt Q92844), the Kd is 14000 nM.
Turning to Q99816 (from UniProt Q99816), the Kd is 1000 nM.

The target of a further test is FLAG-GFP-SLiM with the predicted DDVF motif of GTSE1. In words: BioID2 proximity labeling (streptavidin immunoblot quantification). As to conditions: n = 3; FLAG-GFP-SLiM +DDEVFF (GTSE1); marked *.
For “HA-RSK(WT)-BioID2 (wild-type human RSK2, ribosomal protein S6 kinase A3, fused to BioID2) (from UniProt P51812) KAKLGM-to-KSEPPY”, the ratio to parent is 2.3 fold.

Staying with this test, now noted: n = 3; FLAG-GFP-SLiM +DDEVFF (GTSE1); parent: est. 0.85; read off a plot.
As to “HA-RSK(WT)-BioID2 (wild-type human RSK2, ribosomal protein S6 kinase A3, fused to BioID2) (from UniProt P51812) KAKLGM-to-KSEPPY”, the response (normalized biotin/FLAG) is 0.38.

A further test concerns the target FLAG-GFP-SLiM with the predicted DDVF-like motif of PTPN3. The description is as above. As to conditions: n = 3; FLAG-GFP-SLiM +TEDVFY (PTPN3); parent: est. 1.6; read off a plot.
For “HA-RSK(WT)-BioID2 (wild-type human RSK2, ribosomal protein S6 kinase A3, fused to BioID2) (from UniProt P51812) KAKLGM-to-KSEPPY”, the response (normalized biotin/FLAG) is 1.1.

For the next test, the target named is FLAG-GFP-SLiM with the predicted DDVF-like motif of TRM9B. The test is described as above. The settings on record: n = 3; FLAG-GFP-SLiM +DEEVFV (TRM9B); parent: est. 1.2; read off a plot.
As to “HA-RSK(WT)-BioID2 (wild-type human RSK2, ribosomal protein S6 kinase A3, fused to BioID2) (from UniProt P51812) KAKLGM-to-KSEPPY”, the response (normalized biotin/FLAG) is 0.85.

Another test has as its target FLAG-GFP-SLiM EDSVFS (FGFR1). Described as above. The settings on record: n = 3; FLAG-GFP-SLiM +EDSVFS (FGFR1); marked *.
With “HA-RSK(WT)-BioID2 (wild-type human RSK2, ribosomal protein S6 kinase A3, fused to BioID2) (from UniProt P51812) KAKLGM-to-KSEPPY”, the ratio to parent was determined as 2.4 fold.

The test is the same for the next values; noted with them: n = 3; FLAG-GFP-SLiM +EDSVFS (FGFR1); parent: est. 1.4; read off a plot.
Regarding “HA-RSK(WT)-BioID2 (wild-type human RSK2, ribosomal protein S6 kinase A3, fused to BioID2) (from UniProt P51812) KAKLGM-to-KSEPPY”, the response (normalized biotin/FLAG) was 0.6.

A further test concerns the target FLAG-GFP-SLiM DDSVFS (FGFR2). The test is described as above. As to conditions: n = 3; FLAG-GFP-SLiM +DDSVFS (FGFR2); marked *.
In the case of “HA-RSK(WT)-BioID2 (wild-type human RSK2, ribosomal protein S6 kinase A3, fused to BioID2) (from UniProt P51812) KAKLGM-to-KSEPPY”, the ratio to parent was 3.8 fold.

Still in this test, the particulars now being: n = 3; FLAG-GFP-SLiM +DDSVFS (FGFR2); parent: est. 1.3; read off a plot.
Consider “HA-RSK(WT)-BioID2 (wild-type human RSK2, ribosomal protein S6 kinase A3, fused to BioID2) (from UniProt P51812) KAKLGM-to-KSEPPY”, for which the response (normalized biotin/FLAG) was determined as 0.45.

Another test addresses FLAG-GFP-SLiM with the predicted DDVF-like motif of TMEM139. Described as above. The settings on record: n = 3; FLAG-GFP-SLiM +DDSVFY (TMEM139); parent: est. 2.4; read off a plot.
With “HA-RSK(WT)-BioID2 (wild-type human RSK2, ribosomal protein S6 kinase A3, fused to BioID2) (from UniProt P51812) KAKLGM-to-KSEPPY”, the response (normalized biotin/FLAG) is 0.4.

The next test concerns the target FLAG-GFP-SLiM DDSVFA (FGFR3). Described as above. As to conditions: n = 3; FLAG-GFP-SLiM +DDSVFA (FGFR3); marked *.
On to “HA-RSK(WT)-BioID2 (wild-type human RSK2, ribosomal protein S6 kinase A3, fused to BioID2) (from UniProt P51812) KAKLGM-to-KSEPPY”, for which the ratio to parent came out at 2.4 fold.

Staying with this test, now noted: n = 3; FLAG-GFP-SLiM +DDSVFA (FGFR3); parent: est. 1.0; read off a plot.
With “HA-RSK(WT)-BioID2 (wild-type human RSK2, ribosomal protein S6 kinase A3, fused to BioID2) (from UniProt P51812) KAKLGM-to-KSEPPY”, the response (normalized biotin/FLAG) amounted to 0.43.

A further test deals with unnamed.
Test: not given
As to conditions: cited from earlier work.
Target sequence in this assay (P12004 127-254): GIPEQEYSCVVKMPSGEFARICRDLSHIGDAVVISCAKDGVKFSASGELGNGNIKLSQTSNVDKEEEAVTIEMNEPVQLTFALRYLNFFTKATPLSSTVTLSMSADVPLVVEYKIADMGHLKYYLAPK
For the substance Q15004 (from UniProt Q15004), the Kd was 1000 nM.

In another test the target is unnamed.
Test: not given
The settings on record: cited from earlier work. This is another data set of the same source.
As for Q13137 (from UniProt Q13137), the Kd is 1600 nM.
